Experimental data: publication PMC8928218 (Frontiers in Cell and Developmental Biology, 2022)

Target: Pyrene-labeled G-actin (rabbit, UniProt P68135 1-377, pyrene label)
Assay: cell-based or functional assay

B1: human hexameric SEPT2/6/7 complex (complex)
chain 1: MSKQQPTQFINPETPGYVGFANLPNQVHRKSVKKGFEFTLMVVGESGLGKSTLINSLFLTDLYPERVIPGAAEKIERTVQIEASTVEIEERGVKLRLTVVDTPGYGDAINCRDCFKTIISYIDEQFERYLHDESGLNRRHIIDNRVHCCFYFISPFGHGLKPLDVAFMKAIHNKVNIVPVIAKADTLTLKERERLKKRILDEIEEHNIKIYHLPDAESDEDEDFKEQTRLLKASIPFSVVGSNQLIEAKGKKVRGRLYPWGVVEVENPEHNDFLKLRTMLITHMQDLQEVTQDLHYENFRSERLKRGGRKVENEDMNKDQILLEKEAELRRMQEMIARMQAQMQMQMQGGDGDGGALGHHV
chain 2: MAATDIARQVGEGCRTVPLAGHVGFDSLPDQLVNKSVSQGFCFNILCVGETGLGKSTLMDTLFNTKFEGEPATHTQPGVQLQSNTYDLQESNVRLKLTIVSTVGFGDQINKEDSYKPIVEFIDAQFEAYLQEELKIRRVLHTYHDSRIHVCLYFIAPTGHSLKSLDLVTMKKLDSKVNIIPIIAKADAISKSELTKFKIKITSELVSNGVQIYQFPTDDESVAEINGTMNAHLPFAVIGSTEELKIGNKMMRARQYPWGTVQVENEAHCDFVKLREMLIRVNMEDLREQTHTRHYELYRRCKLEEMGFKDTDPDSKPFSLQETYEAKRNEFLGELQKKEEEMRQMFVQRVKEKEAELKEAEKELHEKFDRLKKLHQDEKKKLEDKKKSLDDEVNAFKQRKTAAELLQSQGSQAGGSQTLKRDKEKKNNPWLCTE
chain 3: MSVSARSAAAEERSVNSSTMVAQQKNLEGYVGFANLPNQVYRKSVKRGFEFTLMVVGESGLGKSTLINSLFLTDLYSPEYPGPSHRIKKTVQVEQSKVLIKEGGVQLLLTIVDTPGFGDAVDNSNCWQPVIDYIDSKFEDYLNAESRVNRRQMPDNRVQCCLYFIAPSGHGLKPLDIEFMKRLHEKVNIIPLIAKADTLTPEECQQFKKQIMKEIQEHKIKIYEFPETDDEEENKLVKKIKDRLPLAVVGSNTIIEVNGKRVRGRQYPWGVAEVENGEHCDFTILRNMLIRTHMQDLKDVTNNVHYENYRSRKLAAVTYNGVDNNKNKGQLTKSPLAQMEEERREHVAKMKKMEMEMEQVFEMKVKEKVQKLKDSEAELQRRHEQMKKNLEAQHKELEEKRRQFEDEKANWEAQQRILEQQNSSRTLEKNKKKGKIF
In the case of B1, the “fold decrease in actin monomer turnover in the elongation phase (tau, the inverse value of the rate constant) in the pyrene actin polymerization assay, 2 µM actin, relative to actin alone” value is reported as roughly 1.4 fold.
